Read-outs that look alike come from different tables or passages of the source.
Columns and labels:
[1] = molecular target: full length human PD-1 on HEK293/hPD-1 cells (human) (UniProt Q15116); assay: FACS dose response, HEK293/hPD-1 cells; control
[2] = molecular target: full length human PD-1 on HEK293/hPD-1 cells (human) (UniProt Q15116); assay: FACS dose response, HEK293/hPD-1 cells; control; remark: listed apart in the source
[3] = molecular target: PD-1 chimera: extracellular domain of human PD-1 with trans-membrane and cytoplasmic domains of human CD300a, on Jurkat/AP1-Luc cells (human) (UniProt Q9UGN4); assay: cell-based or functional assay
[4] = molecular target: recombinant human PD-1 dimer expressed with a C-terminal mouse IgG2a Fc tag (human); assay: competition ELISA: 100 pM hPD-1-mFc to coated hPD-L2-hFc; NBI
[5] = molecular target: recombinant human PD-1 dimer expressed with a C-terminal mouse IgG2a Fc tag (human); assay: competition ELISA: 1.5 nM hPD-1-mFc to coated hPD-L1-hFc; NBI
[6] = molecular target: dimeric biotinylated human PD-1 protein with a C-terminal human Fc tag (human); assay: competition ELISA: 200 pM biot-hPD-1-hFc to coated hPD-L1-mFc; NBI

Row | Substance | Max Geom. Mean MFI @ 100 nM [1] | Max Geom. Mean MFI @ 100 nM [2] | other results
1 | mIgG2a isotype control (antibody) | 352 MFI | 239 MFI | –
2 | hIgG4 isotype control (antibody) | 809 MFI | – | Emax mean [%] @ 100 nM [3]: 98%
3 | Isotype control 2 (antibody) | – | – | % blocking at 100 nM antibody [4]: -27%
4 | mIgG1 isotype control (antibody) | 858 MFI | 200 MFI | –
5 | Isotype control 1 (antibody) | – | – | % blocking at 200 nM antibody [5]: -3%; % blocking at 50 nM antibody [6]: 19%
